How the values were obtained:
[1] = target: HLA-A*01:01; assay: IEDB peptide-MHC binding, purified MHC/direct/fluorescence; filed as Kd, often an IC50 or EC50 that approximates it; ≥ and ≤ were set here for values at or beyond the usual limits of such assays
[2] = target: HLA-A*02:01; assay: as above
[3] = target: HLA-A*03:01; assay: as above
[4] = target: HLA-A*11:01; assay: as above
[5] = target: HLA-A*24:02; assay: as above
[6] = target: HLA-A*24:03; assay: as above
[7] = target: HLA-A*26:01; assay: as above
[8] = target: HLA-A*69:01; assay: as above
[9] = target: HLA-B*07:02; assay: as above
[10] = target: HLA-B*08:01; assay: as above
[11] = target: HLA-B*08:02; assay: as above; details: source organism: Influenza A virus(A/swine/Shandong/fNY/2003(H9N2))
[12] = target: HLA-B*15:01; assay: as above
[13] = target: HLA-B*18:01; assay: as above; details: source organism: Influenza A virus (A/goose/Guangxi/1097/2004(H5N1))
[14] = target: HLA-B*27:05; assay: as above
[15] = target: HLA-B*40:01; assay: as above
[16] = target: HLA-B*44:02; assay: as above
[17] = target: HLA-B*46:01; assay: as above
[18] = target: HLA-B*58:01; assay: as above
[19] = target: HLA-A*31:01; assay: IEDB peptide-MHC binding, purified MHC/competitive/fluorescence; filed as Kd, often an IC50 or EC50 that approximates it; ≥ and ≤ were set here for values at or beyond the usual limits of such assays; details: source organism: Influenza A virus H3N2
[20] = target: HLA-B*07:02; assay: as above
[21] = target: HLA-B*15:01; assay: as above; details: source organism: Encephalitozoon cuniculi GB-M1
[22] = target: HLA-B*35:01; assay: as above; details: source organism: Encephalitozoon cuniculi GB-M1
[23] = target: HLA-B*51:01; assay: as above; details: source organism: Encephalitozoon cuniculi GB-M1
[24] = target: HLA-A*03:01; assay: IEDB peptide-MHC binding, purified MHC/competitive/fluorescence; ≥ and ≤ were set here for values at or beyond the usual limits of such assays
[25] = target: HLA-A*24:02; assay: as above; details: source organism: Zaire ebolavirus
[26] = target: HLA-A*11:01; assay: as above
[27] = target: HLA-A*31:01; assay: IEDB peptide-MHC binding, purified MHC/direct/fluorescence; filed as Kd, often an IC50 or EC50 that approximates it; ≥ and ≤ were set here for values at or beyond the usual limits of such assays
[28] = target: HLA-B*08:01; assay: IEDB peptide-MHC binding, purified MHC/competitive/fluorescence; filed as Kd, often an IC50 or EC50 that approximates it; ≥ and ≤ were set here for values at or beyond the usual limits of such assays
[29] = target: HLA-A*02:01; assay: IEDB peptide-MHC binding, purified MHC/competitive/fluorescence; ≥ and ≤ were set here for values at or beyond the usual limits of such assays; details: source organism: Zaire ebolavirus
[30] = target: HLA-B*07:02; assay: as above; details: source organism: Zaire ebolavirus
[31] = target: HLA-B*08:01; assay: as above; details: source organism: Zaire ebolavirus
[32] = target: HLA-B*15:01; assay: as above; details: source organism: Zaire ebolavirus
[33] = target: HLA-B*15:17; assay: IEDB peptide-MHC binding, purified MHC/direct/fluorescence; filed as Kd, often an IC50 or EC50 that approximates it; ≥ and ≤ were set here for values at or beyond the usual limits of such assays; details: source organism: Yellow fever virus 17D
[34] = target: HLA-C*15:02; assay: as above; details: source organism: Yellow fever virus
[35] = target: HLA-A*02:01; assay: IEDB peptide-MHC binding, purified MHC/competitive/fluorescence; filed as Kd, often an IC50 or EC50 that approximates it; ≥ and ≤ were set here for values at or beyond the usual limits of such assays; details: source organism: Homo sapiens
[36] = target: HLA-A*02:03; assay: as above; details: source organism: Homo sapiens
[37] = target: HLA-A*69:01; assay: as above; details: source organism: Homo sapiens
[38] = target: HLA-A*03:01; assay: as above; details: source organism: Vaccinia virus WR
[39] = target: HLA-C*12:03; assay: IEDB peptide-MHC binding, purified MHC/direct/fluorescence; filed as Kd, often an IC50 or EC50 that approximates it; ≥ and ≤ were set here for values at or beyond the usual limits of such assays; details: source organism: Foot-and-mouth disease virus C1
[40] = source organism: Influenza A virus (A/goose/Guangxi/1097/2004(H5N1))
[41] = source organism: Zaire ebolavirus
[42] = source organism: Sudan ebolavirus
[43] = source organism: Influenza A virus (A/swine/Bakum/5/95(H1N1))
[44] = source organism: Influenza A virus (A/Hong Kong/507/97(H5N1))
[45] = source organism: Influenza A virus (A/Puerto Rico/8/34/Mount Sinai(H1N1))
[46] = source organism: Vaccinia virus WR
[47] = source organism: Influenza A virus (A/swine/Hong Kong/5190/99(H3N2))
[48] = source organism: Influenza A virus (A/SW/KS/13481-T/00(H1N2))

For KYTSGRQEK, the Kd [1, 40] was no less than 20 µM, the Kd [2, 40] was no less than 20 µM and the Kd [3, 40] was no less than 20 µM. It also gave a Kd [4, 40] of no less than 20 µM, a Kd [5, 40] of no less than 20 µM and a Kd [6, 40] of no less than 20 µM. The Kd ([7]; source organism: Influenza A virus(A/swine/Shandong/fNY/2003(H9N2))) was no less than 20 µM, the Kd [8, 40] was no less than 20 µM and the Kd [9, 40] was no less than 20 µM. For the same sequence, the Kd [10, 40] was no less than 20 µM, the Kd [11] was no less than 20 µM and the Kd [12, 40] was no less than 20 µM. It also gave a Kd [13] of no less than 20 µM, a Kd [14, 40] of no less than 20 µM and a Kd [15, 40] of no less than 20 µM. For the same sequence, the Kd [16, 40] was no less than 20 µM, the Kd [17, 40] was no less than 20 µM and the Kd [18, 40] was no less than 20 µM. It also gave a Kd [19] of 0.268 µM.
Sequence ILRQNMIAL has a Kd ([20]; source organism: Encephalitozoon cuniculi GB-M1) of 0.201 µM, a Kd [21] of 0.188 µM and a Kd [22] of 3.18 µM. The Kd [23] was no less than 20 µM.
KYLEGHGFR gave an IC50 [24, 41] of no less than 195 µM and an IC50 [25] of 7.69 µM.
HLASTDQLK gave an IC50 [24, 42] of 27.1 µM and an IC50 [26, 42] of 13.8 µM.
In the case of RGINDRNFW, the Kd [1, 43] is reported as no less than 20 µM, the Kd [2, 43] is reported as no less than 20 µM and the Kd [3, 43] is reported as no less than 20 µM. The Kd [4, 43] was no less than 20 µM, the Kd [5, 43] was no less than 20 µM and the Kd [27, 43] was no less than 20 µM. It also gave a Kd [8, 43] of no less than 20 µM, a Kd [9, 43] of no less than 20 µM and a Kd [10, 43] of no less than 20 µM. The Kd [12, 43] was no less than 20 µM, the Kd [14, 43] was no less than 20 µM and the Kd [15, 43] was no less than 20 µM. For the same sequence, the Kd [17, 43] was no less than 20 µM and the Kd ([18]; source organism: Influenza A virus (A/swine/Bakum/1832/2000(H1N2))) was 0.0415 µM.
For QLRENAEDM, the Kd ([28]; source organism: Influenza A virus (A/swine/Hong Kong/81/1978(H3N2))) was 5.3 µM.
ILFQRTFSI was tested, and the IC50 [29] was 0.309 µM, the IC50 [24, 41] was 2.46 µM and the IC50 [26, 41] was 42.8 µM. It also gave an IC50 [30] of no less than 72.2 µM, an IC50 [31] of 1.26 µM and an IC50 [32] of no less than 375 µM.
KTNDRKWCF showed a Kd [33] of 0.0266 µM and a Kd [34] of 0.849 µM.
For FLHSGTAKS, the Kd [35] was 0.0185 µM, the Kd [36] was 0.00125 µM and the Kd [37] was no less than 20 µM.
With KSCLPACVY the Kd [1, 44] was no less than 20 µM, the Kd [2, 44] was no less than 20 µM and the Kd [3, 44] was no less than 20 µM. It also gave a Kd [5, 44] of no less than 20 µM, a Kd ([7]; source organism: Influenza A virus(A/swine/Henan/8/2004(H9N2))) of no less than 20 µM and a Kd [27, 44] of no less than 20 µM. It also gave a Kd [8, 44] of no less than 20 µM, a Kd [9, 44] of no less than 20 µM and a Kd [10, 44] of no less than 20 µM. For the same sequence, the Kd [12, 45] was 0.482 µM, the Kd [14, 44] was no less than 20 µM and the Kd [15, 44] was no less than 20 µM. For the same sequence, the Kd [16, 44] was no less than 20 µM, the Kd [17, 44] was no less than 20 µM and the Kd [18, 44] was 0.211 µM.
For LSDLKKTIY, the Kd ([1]; source organism: Cowpox virus (Brighton Red)) was 0.0035 µM, the Kd [38] was no less than 20 µM and the Kd [20, 46] was no less than 20 µM. For the same sequence, the Kd [28, 46] was no less than 20 µM.
With IMPRDSWLI the Kd ([5]; source organism: Mycobacterium tuberculosis str. Haarlem) was no more than 0.001 µM.
MMVIFRLMR showed an IC50 [29] of no less than 5440 µM, an IC50 [24, 41] of 0.183 µM and an IC50 [26, 41] of 0.0455 µM.
AITAASLPK gave an IC50 [29] of no less than 281 µM, an IC50 [24, 41] of 6.97 µM and an IC50 [26, 41] of 0.368 µM. It also gave an IC50 [32] of no less than 183 µM.
In the case of GYMFESKSM, the Kd [1, 47] is reported as no less than 20 µM, the Kd [2, 47] is reported as no less than 20 µM and the Kd [3, 47] is reported as no less than 20 µM. For the same sequence, the Kd [4, 47] was no less than 20 µM, the Kd [5, 47] was no less than 20 µM and the Kd [6, 47] was 0.0677 µM. The Kd ([7]; source organism: Influenza A virus(A/swine/Henan/5/2004(H9N2))) was no less than 20 µM, the Kd [27, 47] was no less than 20 µM and the Kd [8, 47] was no less than 20 µM. It also gave a Kd [9, 47] of no less than 20 µM, a Kd [10, 47] of no less than 20 µM and a Kd [14, 47] of no less than 20 µM. The Kd [15, 47] was no less than 20 µM, the Kd [16, 47] was no less than 20 µM and the Kd [18, 47] was no less than 20 µM.
HEKGINPNY was tested, and the Kd [1, 48] was no less than 20 µM, the Kd [2, 48] was no less than 20 µM and the Kd [3, 48] was no less than 20 µM. It also gave a Kd [4, 48] of no less than 20 µM, a Kd [5, 48] of no less than 20 µM and a Kd [7, 48] of no less than 20 µM. For the same sequence, the Kd [27, 48] was no less than 20 µM, the Kd [8, 48] was no less than 20 µM and the Kd [9, 48] was no less than 20 µM. It also gave a Kd [10, 48] of no less than 20 µM, a Kd [12, 45] of 0.541 µM and a Kd [14, 48] of no less than 20 µM. For the same sequence, the Kd [15, 48] was no less than 20 µM, the Kd [17, 48] was no less than 20 µM and the Kd [18, 48] was no less than 20 µM.
With MTAHITVPY the Kd [39] was 0.045 µM.
RLLNLSGVN showed an IC50 [29] of 21.9 µM and an IC50 [24, 41] of 43.2 µM.
